Patent US20200347144A1 (SHANGHAI HYAMAB BIOTECH, published 2020)

Legend:
[1] = molecular target: T1, human 4-1BB, full length, on transfected cells (human, UniProt Q07011 24-255); assay: FACS, CHOK1-h4-1BB cells; Ab 2 ug/ml
T1 construct: whole, on cells; also called CHOK1-h4-1BB
From the text: (§1) The pIRES plasmid carrying the full-length gene of monkey-derived […] (the preparation method is the same as the preparation method of the pCpC vector carrying the human-derived IgG Fc fragment (hFc) in “Preparation of immunogen A” of the step (1) in Example 1, in which the database accession number of the amino acid sequence of the extracellular region of monkey 4-1BB protein (Phe19-Thr239) is G7PSE7) was transfected into CHOK1 cell line to obtain CHOK1 stable transfected cell line containing monkey 4-1BB (herein referred to as CHOK1-c4-1BB stable cell line). The CHOK1-h4-1BB stable cell line and the CHOK1-c4-1BB stable cell line were expanded and cultivated to 90% confluence in T-75 cell culture flasks. The medium was exhausted, and washed twice with HBSS buffer (Hanks Balanced Salt Solution, purchased from Invitrogen), and then the cells were treated and collected with enzyme-free cell dissociation solution (Versene solution, purchased from Life Technology). The cells were washed twice with HBSS buffer, and after cell counting, the cells were diluted with HBSS buffer to 2×10⁶ cells per ml, and 1% goat serum blocking solution was added, the percentage being the mass percentage. It was incubated on ice for 30 minutes, and then washed twice with HBSS buffer by centrifugation. The collected cells were suspended in FACS buffer (HBSS containing 1% BSA, the percentage was the mass percentage) to 2×10⁶ cells/mL, and 100 μl per well was added to a 96-well FACS reaction plate. The purified 4-1BB antibody test sample obtained in Example 2 was added, 100 microliters per well and incubated on ice for 2 hours. […] It was washed three times with FACS buffer by centrifugation, and 100 μl of fixative [4% (v/v) paraformaldehyde] per well was added to suspend cells, and washed twice with FACS buffer after 10 minutes by centrifugation. The cells were suspended with 100 microliters of FACS buffer, and the results were detected and analyzed with FACS (FACS Calibur, purchased from BD).

[2] = molecular target: T1, human 4-1BB, full length, on …; assay: FACS, CHOK1-h4-1BB cells; Ab 10 ug/ml
From the text: as §1

[3] = molecular target: T2, monkey 4-1BB on CHOK1 cells (monkey); assay: FACS, CHOK1-c4-1BB cells; Ab 10 ug/ml
T2 construct: whole, on cells; also called CHOK1-c4-1BB
From the text: as §1

[4] = molecular target: T1, human 4-1BB, full length, on …; assay: FACS, CHOK1-h4-1BB cells; Ab 0.4 ug/ml
From the text: as §1

[5] = molecular target: T2, monkey 4-1BB on CHOK1 cells; assay: FACS, CHOK1-c4-1BB cells; Ab 0.4 ug/ml
From the text: as §1

[6] = molecular target: T1, human 4-1BB, full length, on …; assay: FACS, CHOK1-h4-1BB cells; Ab 0.08 ug/ml
From the text: as §1

[7] = molecular target: T1, human 4-1BB, full length, on …; assay: FACS, CHOK1-h4-1BB cells; Ab 0.016 ug/ml
From the text: as §1

[8] = molecular target: T2, monkey 4-1BB on CHOK1 cells; assay: FACS, CHOK1-c4-1BB cells; Ab 0.016 ug/ml
From the text: as §1

[9] = molecular target: T2, monkey 4-1BB on CHOK1 cells; assay: FACS, CHOK1-c4-1BB cells; Ab 0.0032 ug/ml
From the text: as §1

[10] = molecular target: T1, human 4-1BB, full length, on …; assay: FACS, CHOK1-h4-1BB cells; Ab 0.00013 ug/ml
From the text: as §1

[11] = molecular target: T1, human 4-1BB, full length, on …; assay: FACS, CHOK1-h4-1BB cells; Ab 0.00064 ug/ml
From the text: as §1

[12] = molecular target: T3, hFc-tagged human 4-1BB extracellular domain protein (4-1BB-hFc) (human, UniProt Q07011 24-186, limits assumed); assay: ELISA, coated human 4-1BB-hFc; Ab 0.4 ug/ml
T3 construct: also called immunogen A; 4-1BB^ECD-hFc; not shown: human IgG Fc fragment (hFc) of the pCpC vector
Protocol: (§2) The purified immunogen A (4-1BB-hFc), monkey 4-1BB-his, and mouse 4-1BB-his obtained in Example 1 [for the preparation method, see step 1 of Example 1, preparation of immunogen A], of which the extracellular domain of monkey-derived 4-1BB protein (purchased from ACRO biosystems), the extracellular domain of mouse 4-1BB protein (purchased from sino biological) or other immune detection point proteins respectively were diluted with PBS to a final concentration of 1.0 μg/mL, then added with […] per well to 96-well ELISA plate. It was sealed with plastic film and incubated at 4° C. overnight. The next day, the plate was washed twice with the plate-washing solution [PBS containing 0.01% (v/v) Tween20] and blocking solution [PBS containing 0.01% (v/v) Tween 20 and 1% (v/v) BSA] was added and blocked at room temperature for 2 hours. The blocking solution was discarded and 100 μl of the purified 4-1BB antibody obtained in Example 2 was added per well. After incubated at 37° C. for 2 hours, the plate was washed 3 times with a plate-washing solution [PBS containing 0.01% (v/v) Tween20]. A secondary antibody (purchased from Sigma) labeled with HRP (horseradish peroxidase) was added, and after incubated at 37° C. for 2 hours, the plate was washed 3 times with a plate-washing solution [PBS containing 0.01% (v/v) Tween20]. 100 μl of TMB substrate was added per well. After incubated for 30 minutes at room temperature, 100 μl of stop buffer (1.0N HCl) was added per well. The A450 nm values were read using an ELISA plate reader (SpectraMax 384plus, Molecular Device).

[13] = molecular target: T3, hFc-tagged human 4-1BB extracellular …; assay: ELISA, coated human 4-1BB-hFc; Ab 0.0006 ug/ml
Protocol: as §2

[14] = molecular target: T3, hFc-tagged human 4-1BB extracellular …; assay: ELISA, coated human 4-1BB-hFc; Ab 0.0032 ug/ml
Protocol: as §2

T1 sequence (Q07011 24-255): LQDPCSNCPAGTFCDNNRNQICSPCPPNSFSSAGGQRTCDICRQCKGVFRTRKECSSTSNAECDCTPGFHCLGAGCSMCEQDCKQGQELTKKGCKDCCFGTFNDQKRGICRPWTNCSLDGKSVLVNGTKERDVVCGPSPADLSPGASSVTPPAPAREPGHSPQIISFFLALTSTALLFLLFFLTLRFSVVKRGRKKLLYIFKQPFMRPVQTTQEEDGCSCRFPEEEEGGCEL

| average fluorescence intensity [1] | average fluorescence intensity [2] | average fluorescence intensity [3] | average fluorescence intensity [4] | average fluorescence intensity [5] | average fluorescence intensity [6] | average fluorescence intensity [7] | average fluorescence intensity [8] | average fluorescence intensity [9] | average fluorescence intensity [10] | average fluorescence intensity [11] | OD450 nm [12] | OD450 nm [13] | OD450 nm [14] | Binder |
| --- | --- | --- | --- | --- | --- | --- | --- | --- | --- | --- | --- | --- | --- | --- |
| 486 MFI | 489 MFI | 342 MFI | 413 MFI | 159 MFI | 172 MFI | 46.9 MFI | 16.7 MFI | 6.6 MFI | 13.8 MFI | 49.5 MFI | 3.44 OD450 nm | 0.2 OD450 nm | 0.51 OD450 nm | 172E3E3 (antibody, V domains shown) VH: QVQLQESGPGLVKPSGTLSLTCAVSGGSISSSNWWSWVRQPPGKGLEWIGEIYHSGSTNYNPSLKSRVTISVDKSKNQLSLNLSSVTAADTAVYYCARQGGVAGTLYWYFDLWGRGTLVTVSS VL: DIVMTQSPLSLPVTPGEPASISCRSSQGLLHSNGYNYLDWYLQKPGQSPQLLIYLGSNRASGVPDRFIGSGSGTDFTLKIRRVEAEDVGVYYCMQVLQTPWTFGQGTKVEIK |
| 1080 MFI | 1080 MFI | 1470 MFI | 636 MFI | 944 MFI | 199 MFI | 49.1 MFI | 77.9 MFI | 20.7 MFI | 2.6 MFI | 5.1 MFI | 2.77 OD450 nm | 0.11 OD450 nm | 0.33 OD450 nm | 119B6G5 (antibody, V domains shown) VH: EVQLLESGGGLVQPGGSLRLSCAASGFTFSNYAMSWVRQGPGKGLEWVSTIIGSGDSTYYTDSVKGRFTISRDNSKNTLFLQMNSLRAEDTAVYYCARDKSGWYYFDYWGQGTLVTVSS VL: DIQMTQSPSTLSASVGDRVTITCRASQSISNWLAWYQQKPGKAPKLLIYKASSLESGVPSRFSGSGSGTEFTLTISSLQPDDFATYYCQQYNDYFPITFGQGTRLEIK |
| 803 MFI | 827 MFI | 126 MFI | 625 MFI | 64.3 MFI | 252 MFI | 67.2 MFI | 9.3 MFI | 4.3 MFI | 3.9 MFI | 7.1 MFI | 2.79 OD450 nm | 0.11 OD450 nm | 0.33 OD450 nm | 259G10E11 (antibody, V domains shown) VH: QVQLVESGGGVVQPGRSLRLSCAASGFTFSSYGMHWVRQAPGKGLEWVAVIWYDGSNKYYADSVKGRFTISRDNSKNTLYLQMNSLRAEDTAVYYCARGPYLYSSGWYDYYYYGMDVWGQGTTVTVSS VL: not shown |
| 520 MFI | 498 MFI | 736 MFI | 431 MFI | 298 MFI | 200 MFI | 58.7 MFI | 24.7 MFI | 10.4 MFI | 3.5 MFI | 6.4 MFI | 3.58 OD450 nm | 0.19 OD450 nm | 0.49 OD450 nm | 11H10C9 (antibody, V domains shown) VH: QVQLVESGGGVVQPGRSLRLSCAASGFTFSSYAMHWVRQAPGKGLEWVAIIWYDGSNQYYADSVKGRFTISRDNSMNTLYLQMNSLRAEDTAVYYCARVEQWLVSYFDFWGQGTLVTVSS VL: EIVMTQSPATLSVSPGERATLSCRASQSVSSNLAWYQQKPGQVPRLLIYGASTRATGIPARFSGSGSGTEFTLTISSLQSEDFAVYYCQQYNNWPTFGGGTKVEIK |

More lines, now with the values behind:

| Binder | average fluorescence intensity [1] | average fluorescence intensity [2] | average fluorescence intensity [3] | average fluorescence intensity [4] | average fluorescence intensity [5] | average fluorescence intensity [6] | average fluorescence intensity [7] | average fluorescence intensity [8] | average fluorescence intensity [9] | average fluorescence intensity [10] | average fluorescence intensity [11] | OD450 nm [12] | OD450 nm [13] | OD450 nm [14] |
| --- | --- | --- | --- | --- | --- | --- | --- | --- | --- | --- | --- | --- | --- | --- |
| 182A5B3 (antibody, V domains shown) VH: QVQLVQSGAEVKKPGASVKVSCKASGYTFTSYDINWVRQATGQGLEWMGWMNPNSGNTGYVQKFQGRVTMTRNTSISTAYMELSSLRSEDTAVYYCARETGPFDYWGQGTLVTVSS VL: not shown | 760 MFI | 769 MFI | 746 MFI | 530 MFI | 373 MFI | 200 MFI | 52.7 MFI | 33.2 MFI | 10.4 MFI | 2.6 MFI | 5 MFI | 3.56 OD450 nm | 0.18 OD450 nm | 0.38 OD450 nm |
| 258F5A8 (antibody, V domains shown) VH: QVQLVESGGGVVQPGRSLRLSCAASGFTFSSYGMHWVRQAPGKGLEWVAVIWYDGSNKYYADSVKGRFNISRDNSKNTLYLQMNSLRAEDTAVYYCARGPYLYSSGWYDYYYYGMDVWGQGTTVTVSS VL: not shown | 766 MFI | 835 MFI | 131 MFI | 591 MFI | 71.4 MFI | 252 MFI | 68 MFI | 9.9 MFI | 4.5 MFI | 4.1 MFI | 7 MFI | 2.69 OD450 nm | 0.09 OD450 nm | 0.26 OD450 nm |
| 263A11E3 (antibody, V domains shown) VH: QVQLQESGPGLVKPSETLSLTCAVSGYSISSGYYWGWIRQPPGKGLEWIGSIYHSGSTSYNPSLRSRVTISVDTSKNQFSLKLSSVTAADTAVYYCARDAGGFDYWGQGTLVTVSS VL: not shown | 1690 MFI | 1780 MFI | 124 MFI | 1120 MFI | 56.5 MFI | 356 MFI | 85.6 MFI | 8 MFI | 3.8 MFI | 4 MFI | 8 MFI | 2.75 OD450 nm | 0.1 OD450 nm | 0.3 OD450 nm |
